{"source": "paper PMC11607428", "about": "“Broadly conserved FlgV controls flagellar assembly and Borrelia burgdorferi dissemination in mice” (Nature Communications, 2024)", "proteins": {"B1": {"name": "FlgV (BB0268), B. burgdorferi (natural protein)", "chain": "MFISRELKYILLTSVSALFISAVLGLFCGLSFFTILVRSLLQFVFFFVIGLLIEYIFKKYLSNLFSTELSGNMENKPQDDKKSDKDFKENLDFQNKNSLYENSQNISSSGDFIEEVKKYKFETEDVSRGSDKNKKMSFIEDNDPKVVADAIKTLMSKKE", "notes": "FlgV (BB0268) of Borrelia burgdorferi B31; ORF of 480 bp; antigen for the antibody was amino acids 58-159; two predicted transmembrane helices (amino acids 13 to 35 and 40 to 57); native flgV ORF amplified from B. burgdorferi A3 genomic DNA for the overexpression plasmid; Untagged protein; Strains, plasmids and primers are in Supplementary Data 1; also called bb0268 gene product; previously …"}}, "target": "the molecule itself", "assay": "immunoblot after SDS-PAGE (higher molecular weight band); total protein lysate of WT/pcon ++flgV (PA267) B. burgdorferi, log and stationary phase, boiled in Laemmli buffer with beta-mercaptoethanol, Tris-Glycine gel, probed with anti-FlgV", "data": [{"protein": "B1", "values": [{"measurement": "stoichiometry N", "result": 2}]}]}
